In patent US20170189511A1:

Molecular target: HLA-A*24 (peptide-receptive MHC class I monomer of the UV-ligand exchange assay) (human)
Assay: UV-ligand exchange with anti-b2m ELISA

B1: Peptide SEQ ID NO: 197 (…) (peptide)
peptide: EYSLFPGQVVI
peptide exchange yield: 50 to 75%

B2: Peptide SEQ ID NO: 199 (…) (peptide)
peptide: RYAEEVGIF
peptide exchange yield: 50 to 75%

B3: Peptide SEQ ID NO: 200 (…) (peptide)
peptide: YYGPSLFLL
peptide exchange yield: 50 to 75%

B4: Peptide SEQ ID NO: 201 (…) (peptide)
peptide: IYATEAHVF
peptide exchange yield: 50 to 75%

B5: Peptide SEQ ID NO: 202 (…) (peptide)
peptide: VYWDSAGAAHF
peptide exchange yield: > 75%

B6: Peptide SEQ ID NO: 204 (…) (peptide)
peptide: TYELRYFQI
peptide exchange yield: > 75%

B7: Peptide SEQ ID NO: 207 (…) (peptide)
peptide: AYVVFVSTL
peptide exchange yield: 20 to 49%

B8: Peptide SEQ ID NO: 209 (…) (peptide)
peptide: TYKDEGNDYF
peptide exchange yield: 50 to 75%

B9: Peptide SEQ ID NO: 218 (…) (peptide)
peptide: YYKSTSSAF
peptide exchange yield: 50 to 75%

B10: Peptide SEQ ID NO: 222 (…) (peptide)
peptide: TFSVSSHLF
peptide exchange yield: 50 to 75%

B11: Peptide SEQ ID NO: 268 (…) (peptide)
peptide: QYLGQIQHI
peptide exchange yield: 50 to 75%

B12: Peptide SEQ ID NO: 269 (…) (peptide)
peptide: YFIDSTNLKTHF
peptide exchange yield: 50 to 75%

B13: Peptide SEQ ID NO: 270 (…) (peptide)
peptide: NYYEVHKELF
peptide exchange yield: 50 to 75%

B14: Peptide SEQ ID NO: 277 (…) (peptide)
peptide: VYQGHTALL
peptide exchange yield: > 75%

B15: Peptide SEQ ID NO: 281 (…) (peptide)
peptide: PYRLIFEKF
peptide exchange yield: 20 to 49%

B16: Peptide SEQ ID NO: 285 (…) (peptide)
peptide: HYPPVQVLF
peptide exchange yield: 50 to 75%

B17: Peptide SEQ ID NO: 287 (…) (peptide)
peptide: LYITEPKTI
peptide exchange yield: 50 to 75%
